In article PMC8301817, “Phylogenetic Diversity of Lhr Proteins and Biochemical Activities of the Thermococcales aLhr2 DNA/RNA Helicase” one finds Kd data, which are given here for six molecules.

Holding throughout (test): filter binding; 5 mM Mg2+; 25 mM Tris-HCl pH 8, 50 mM NaAc, 5 mM MgCl2, 2.5 mM beta-mercaptoethanol; protein preincubated 10 min 65 C, binding 15 min 30 C; 0.5 nM substrate (Methods); Resu
One data set addresses T1, Tbar-aLhr2-ΔDom4 (Thermococcus barophilus, UniProt F0LJX3 1-513).
T1 sequence: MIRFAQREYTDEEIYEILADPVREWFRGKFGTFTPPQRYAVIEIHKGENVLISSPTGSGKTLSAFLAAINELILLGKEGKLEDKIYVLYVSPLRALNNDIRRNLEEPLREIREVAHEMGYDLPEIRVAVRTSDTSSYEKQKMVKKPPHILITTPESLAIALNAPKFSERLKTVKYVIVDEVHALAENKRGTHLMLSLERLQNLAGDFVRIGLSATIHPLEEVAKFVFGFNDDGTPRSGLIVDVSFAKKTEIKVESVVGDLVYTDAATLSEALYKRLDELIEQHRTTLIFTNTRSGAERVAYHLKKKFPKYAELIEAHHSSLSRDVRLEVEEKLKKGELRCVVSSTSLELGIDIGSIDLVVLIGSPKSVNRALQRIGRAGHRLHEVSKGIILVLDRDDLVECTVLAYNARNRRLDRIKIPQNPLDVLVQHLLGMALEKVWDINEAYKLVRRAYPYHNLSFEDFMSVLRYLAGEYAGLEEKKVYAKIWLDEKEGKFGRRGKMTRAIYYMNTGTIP
The following applies: protein: recombinant; tags: untagged; label: 5'-32P; single strand.

In another data set the target is T2, Tbar-aLhr2 WT (Thermococcus barophilus, UniProt F0LJX3 1-863).
T2 sequence: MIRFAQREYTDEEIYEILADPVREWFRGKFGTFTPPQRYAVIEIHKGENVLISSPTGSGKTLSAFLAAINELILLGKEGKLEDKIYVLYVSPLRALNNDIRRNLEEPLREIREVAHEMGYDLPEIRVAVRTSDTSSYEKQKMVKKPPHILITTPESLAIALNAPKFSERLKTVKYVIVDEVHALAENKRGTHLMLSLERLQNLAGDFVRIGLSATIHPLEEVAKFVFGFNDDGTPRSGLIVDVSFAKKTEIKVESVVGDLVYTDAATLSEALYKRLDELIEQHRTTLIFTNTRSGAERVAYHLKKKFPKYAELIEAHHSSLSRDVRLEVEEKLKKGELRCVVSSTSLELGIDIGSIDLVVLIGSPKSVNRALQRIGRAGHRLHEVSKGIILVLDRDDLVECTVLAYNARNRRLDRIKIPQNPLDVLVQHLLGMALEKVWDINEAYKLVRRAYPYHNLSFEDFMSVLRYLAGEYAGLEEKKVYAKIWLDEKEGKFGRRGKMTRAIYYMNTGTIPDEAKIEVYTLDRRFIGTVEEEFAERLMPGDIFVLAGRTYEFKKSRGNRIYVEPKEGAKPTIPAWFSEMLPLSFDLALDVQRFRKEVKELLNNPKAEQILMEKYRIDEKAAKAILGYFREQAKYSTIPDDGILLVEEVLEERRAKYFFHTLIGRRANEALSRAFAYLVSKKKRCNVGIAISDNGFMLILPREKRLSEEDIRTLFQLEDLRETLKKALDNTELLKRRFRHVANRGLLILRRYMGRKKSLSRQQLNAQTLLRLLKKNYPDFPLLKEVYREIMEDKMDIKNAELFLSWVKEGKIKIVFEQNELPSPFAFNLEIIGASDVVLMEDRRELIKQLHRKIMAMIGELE
The conditions noted are these: protein: recombinant, tags: untagged, chain copies: 4.

Another data set deals with T3, Tbar-aLhr2-Dom4 (Thermococcus barophilus, UniProt F0LJX3 514-863).
T3 sequence: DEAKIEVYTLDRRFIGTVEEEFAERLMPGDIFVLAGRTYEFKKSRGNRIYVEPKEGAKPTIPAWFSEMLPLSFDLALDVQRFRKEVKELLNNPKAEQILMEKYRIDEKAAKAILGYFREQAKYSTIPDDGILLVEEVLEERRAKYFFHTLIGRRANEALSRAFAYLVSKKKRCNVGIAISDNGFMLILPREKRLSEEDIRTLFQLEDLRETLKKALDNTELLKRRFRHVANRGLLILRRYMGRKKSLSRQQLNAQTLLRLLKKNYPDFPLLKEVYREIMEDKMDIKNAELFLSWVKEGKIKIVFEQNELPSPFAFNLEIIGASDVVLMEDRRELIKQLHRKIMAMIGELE
The following applies: protein: recombinant; tags: untagged; label: 5'-32P; single strand.

The target in the next data set is T4, Paby-Hel308 (Pyrococcus abyssi, UniProt Q9V0A9 1-715).
T4 sequence: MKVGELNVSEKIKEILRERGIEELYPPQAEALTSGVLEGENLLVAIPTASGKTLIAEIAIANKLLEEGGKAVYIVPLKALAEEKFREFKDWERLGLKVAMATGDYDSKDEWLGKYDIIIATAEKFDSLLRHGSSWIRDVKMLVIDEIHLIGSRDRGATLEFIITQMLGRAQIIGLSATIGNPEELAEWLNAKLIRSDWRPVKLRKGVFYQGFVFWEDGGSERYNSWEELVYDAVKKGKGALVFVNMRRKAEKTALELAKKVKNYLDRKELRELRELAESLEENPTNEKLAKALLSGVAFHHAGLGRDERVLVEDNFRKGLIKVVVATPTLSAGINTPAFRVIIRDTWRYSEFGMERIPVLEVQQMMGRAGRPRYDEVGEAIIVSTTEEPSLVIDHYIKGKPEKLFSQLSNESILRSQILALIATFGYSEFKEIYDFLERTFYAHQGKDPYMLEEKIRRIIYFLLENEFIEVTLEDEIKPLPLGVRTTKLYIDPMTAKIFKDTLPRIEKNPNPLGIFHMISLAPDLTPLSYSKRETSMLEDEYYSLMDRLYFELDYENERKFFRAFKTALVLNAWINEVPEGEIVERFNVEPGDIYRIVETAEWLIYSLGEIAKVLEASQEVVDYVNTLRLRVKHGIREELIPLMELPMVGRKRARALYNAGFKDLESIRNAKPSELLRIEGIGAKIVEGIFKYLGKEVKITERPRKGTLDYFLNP
The following applies: protein: recombinant, tags: untagged.

[1] abbreviates: label: 5'-32P on DNA31, 3' overhang 28 nt.

B1: DNA50 (ssDNA)
DNA: ATCGATAGTCTCTAGACAGCATGTCCTAGCAAGCCAGAATTCGGCAGCGT
What is called Kd is a measure of binding affinity in units of concentration. Consider B1, for which the Kd was 54 ± 1 nM with Tbar-aLhr2-ΔDom4; 39 ± 1 nM with Tbar-aLhr2 WT (label: 5'-32P, single strand); 162 ± 5 nM with Tbar-aLhr2-Dom4; 32 ± 2 nM in the data set with Paby-Hel308 (label: 5'-32P, single strand).

B2: RNA26 (ssRNA)
RNA: ACGCUGCCGAAUUCUGGCUUGCUAGG
Consider B2, for which the Kd with Tbar-aLhr2-ΔDom4 is 150 ± 1 nM; in the data set with Tbar-aLhr2 WT (label: 5'-32P, single strand) it was 80 ± 2 nM; with Tbar-aLhr2-Dom4 it was 241 ± 17 nM.

B3: DNA26 (ssDNA)
DNA: GGACATGCTGTCTAGAGACTATCGAT
Take B3: the Kd in the data set with Tbar-aLhr2-ΔDom4 is 211 ± 9 nM; in the data set with Tbar-aLhr2 WT (label: 5'-32P, single strand), 58 ± 2 nM; with Tbar-aLhr2-Dom4, 277 ± 16 nM.

B4: 3'DNA59:DNA31 (dsDNA)
DNA 1: GACGCTGCCGAATTCTACCAGTGCCTTGCTAGGACATCTTTGCCCACCTGCAGGTTCAC
DNA 2: TAGCAAGGCACTGGTAGAATTCGGCAGCGTC
Regarding B4, the Kd with Tbar-aLhr2 WT (setting [1]) turned out to be 41 ± 2 nM; in the data set with Paby-Hel308 (setting [1]), 23 ± 1 nM.

B5: RNA50 (ssRNA)
RNA: AUCGAUAGUCUCUAGACAGCAUGUCCUAGCAAGCCAGAAUUCGGCAGCGU
As to B5, the Kd in the data set with Tbar-aLhr2-ΔDom4 was 69 ± 1 nM; in the data set with Tbar-aLhr2 WT (label: 5'-32P, single strand) it was 41 ± 1 nM; with Tbar-aLhr2-Dom4, 161 ± 5 nM; with Paby-Hel308 (label: 5'-32P, single strand) it was 38 ± 1 nM.

B6: 3'RNA50:RNA26 (dsRNA)
RNA 1: AUCGAUAGUCUCUAGACAGCAUGUCCUAGCAAGCCAGAAUUCGGCAGCGU
RNA 2: GGACAUGCUGUCUAGAGACUAUCGAU
For the molecule B6, the dissociation constant Kd with Tbar-aLhr2 WT (label: 5'-32P on RNA26, 3' overhang 24 nt) came to 39 ± 2 nM.
